In US20160376366A1 (IMMUNOMEDICS, published 2016):

B1: humanized RFB4 (hRFB4) anti-CD22 antibody, IgG (antibody, V domains shown)
VH: QVQLVQSGAEVKKPGSSVKVSCKASGFTFSIYDMSWVRQAPGQGLEWVAYISSGGGTTYYPDTVKGRFTITADESTNTAYMELSSLRSEDTAFYFCARHSGYGSSYGVLFAYWGQGTLVTVSS
VL: DIQLTQSPSSLSASVGDRVTISCRASQDISNYLNWYQQKPGKAPKLLIYYTSILHSGVPSRFSGSGSGTDYTFTISSLQPEDIATYYCQQGNTLPWTFGGGTKVQIKR
notes: RFB4 CDRs were inserted into the FR and constant regions of hLL2; also called hRFB4 IgG
B2: humanized anti-CD22 LL2 antibody (hLL2, epratuzumab), IgG (antibody, V domains shown)
VH: QVQLQQSGAEVKKPGSSVKVSCKASGYTFTSYWLHWVRQAPGQGLEWIGYIYPRNDYTEYNQNFKDKATITADESTNTAYMELSSLRSEDTAFYFCARRDITTFYWGQGTTVTVSS
VL: DIQLTQSPSSLSASVGDRVTMSCKSSQSVLYSANHKNYLAWYQQKPGKAPKLLIYWASTRESGVPSRFSGSGSGTDFTFTISSLQPEDIATYYCHQYLSSWTFGGGTKVQIKR
notes: Tested as IgG with human constant regions; also called hLL2 IgG

What was measured:
[1] = biological target: T1, CD22 on CD22+ Daudi cells and on B cells within PBMCs (human, UniProt P20273 20-847); experiment: flow cytometry on CD22+ Daudi cells, MFI, FITC anti-human Fc detection
T1 construct: whole, on cells; The target was presented on human cells; also called human CD22
Protocol: (§1) FIG. 3. […] Binding activity at indicated concentrations is given as the MFI. Measurements were performed in triplicate; standard deviations are shown as bars.
(§2) Cells were pelleted at 200 g at 4° C. for 5 min and washed twice with 500 μl of FACS buffer. For detection of bound antibodies, cells were incubated with saturating amounts of FITC conjugated F(ab) Fragment goat anti-Human IgG, Fc specific (13 μg/ml; Jackson Immuno Research, West Grove, Pa.) for 45 min at 4° C. and washed again with 500 μl of FACS buffer. Stained cells were analyzed on a FACSCAN™ Flow Cytometer (BD Bioscience, San Jose, Calif.), and median fluorescence intensity (MFI) was calculated using […]™ software (BD Bioscience).

[2] = biological target: T1, CD22 on CD22+ Daudi cells and on B …; experiment: flow cytometry (MFI) on CD22+ Daudi cells
Protocol: as §1, §2

[3] = biological target: T1, CD22 on CD22+ Daudi cells and on B …; experiment: flow cytometry on CD22+ Daudi cells; reference hLL2 IgG
Protocol: as §1, §2

[4] = biological target: T1, CD22 on CD22+ Daudi cells and on B …; experiment: ELISA on CD22+ Daudi cells (FIG. 2); reference hLL2
[5] = biological target: T1, CD22 on CD22+ Daudi cells and on B …; experiment: ELISA on CD22+ Daudi cells

| Binder | EC50 [1] [nM] | EC50 [2] [µg/mL] | fold higher affinity (EC50) than hLL2 [3] [fold] | fold higher binding affinity than hLL2 [4] [fold] | Kd [5] [nM] |
| --- | --- | --- | --- | --- | --- |
| B1 | 0.4 | 0.055 | 19 | 10 | – |
| B2 | 6.9 | 1.03 | – | – | 7.6 |
